Consider 2 molecules from patent publication US20040049009A1, “Methods for improving the antagonistic/agonistic properties of peptidic antagonists/agonists of the corticotropin-releasing factor receptor (crfr)” (priority 2000, published 2004).

Ends that are not written are not given here.

The target in assay [1] is T1, rat CRF binding protein C-terminally fused with a His6 sequence (rat) (UniProt P24388).
T1 sequence: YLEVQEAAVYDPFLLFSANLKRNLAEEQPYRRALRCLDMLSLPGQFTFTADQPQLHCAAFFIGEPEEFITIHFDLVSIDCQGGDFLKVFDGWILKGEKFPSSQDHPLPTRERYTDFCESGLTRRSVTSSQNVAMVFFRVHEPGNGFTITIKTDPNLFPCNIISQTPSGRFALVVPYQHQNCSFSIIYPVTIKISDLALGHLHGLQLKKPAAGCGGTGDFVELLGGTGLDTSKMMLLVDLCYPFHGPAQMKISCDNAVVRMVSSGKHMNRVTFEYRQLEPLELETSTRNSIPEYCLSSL
In words: SPA competition with 0.1 nM [125I-Tyr0]h/rCRF, His-tagged rCRFBP; 95% CI (45-70).

In assay [2] the target is mouse CRF receptor, type 2β (mouse) (UniProt Q60748). In words: SPA competition with 0.05 nM [125I-Tyr0]Svg, HEK-293 membranes; 95% CI (0.72-1.1).
The target is the same in assay [3]. In words: SPA competition with 0.05 nM [125I-Tyr0]Svg, HEK-293 membranes; 95% CI (0.56-1.1).
Assay [4] addresses T1, rat CRF binding protein C-terminally fused with a His6 sequence (rat). Kind of assay: SPA competition with 0.1 nM [125I-Tyr0]h/rCRF, His-tagged rCRFBP; 95% CI (0.66-1.0).

Consider QGPPISIDLSLELLRKMIEIEKQEKEKQQAANNRLLLDTI (ligand, ends and bridges not checked) [sauvagine], for which the results for the IC50 in assay [1] and in assay [2] were 57 nM and 0.92 nM, respectively.
With QGPPISIDLSLELLRKMIEIARAEKEKQQAANNRLLLDTI (ends and bridges not checked) [[Ala^21,23Arg^22]Svg], the IC50 (in general, the concentration at which inhibition is half-maximal) in assay [3] was determined as 0.82 nM; in assay [4], 0.84 nM.
